The target of assay [1] is T1, PD-1 shown on cells (Raji-PD-1 cells); CD3/CD28 activated human CD8+ T cells; PD-1 effector cells of the … (human, UniProt Q15116 25-288).
T1 construct: whole, on cells; Human is stated for the PBMCs; also called hPD-1; PD1 expressing Raji cells
Briefly: flow cytometry on CD3+CD8+ T cells within CD3/CD28 activated human PBMCs, 1 h at 4 C, anti-human IgG PE, % anti-hIgG+; table CD8+ T cells under the graph. How it is done: Mixed donor lots of human peripheral blood mononuclear cells (PBMCs) were thawed and seeded in medium (RPMI1640, 10% fetal bovine serum (FBS), 2 mM 1-Glutamine, 50 U/mL penicillin, 50 μg/mL streptomycin, 1 μM each of non-essential amino acids, 10 mM HEPES, 1 mM sodium pyruvate, 55 μM B-mercaptoethanol, 10 μg/mL gentamycin) into tissue culture treated plates that were coated for 1 h at 37° C. with 1 μg/ml anti-CD3. Anti-CD28 was added in solution at a concentration of 5 μg/ml. Two days later the PBMCs were collected and transferred into a 96 well v-bottom plate at 100,000 cells per well in FACS Buffer (2% FBS in phosphate buffered saline (PBS)). Test articles were diluted to twice the indicated concentration in FACS buffer. Test articles were added to cells at a 1:1 ratio to the final concentration indicated in the figure and incubated for 1 h at 4° C. The cells were washed three times with FACS buffer and fixed in 4% PFA. Cells were then washed once in FACS buffer. All cells were stained in 100 μL of indicated molecules in FACS buffer for 1 h at 4° C. The cells were washed three times with FACS buffer and fixed in 4% paraformaldehyde (PFA). All cells were subsequently stained in 100 μL with anti-human IgG PE, anti-CD3 PE/Dazzle 594, anti-CD45 PerCP Cy5.5, anti-CD8 BV510, and anti-CD4 BV421 for 30 minutes. Cells were washed twice to remove unbound antibody and analyzed on the BD Celesta by gating on CD3+CD8+ T cells.
For orientation: In flow cytometry, cells or beads pass a laser one at a time.

The target of assay [2] is PD-1 (antigen of the ELISA and of the in vitro affinity measurement) (UniProt Q15116 25-167, limits assumed). As to the kind of experiment: kinetic binding table: TC3 captured as ligand (capture level 78.1 RU), hPD1-his as sample; method not given.

Broadly, the EC50 is the midpoint of the concentration-response curve. High values mean lower potency in that assay, low ones higher potency in that assay. As usually defined, the Kd is the constant that tells how readily two partners part at equilibrium. Broadly, the koff is the rate constant with which the complex falls apart. A higher koff goes with a short-lived complex. Broadly, the kon is a measure of how fast the partners come together.

T1 sequence (Q15116 25-288): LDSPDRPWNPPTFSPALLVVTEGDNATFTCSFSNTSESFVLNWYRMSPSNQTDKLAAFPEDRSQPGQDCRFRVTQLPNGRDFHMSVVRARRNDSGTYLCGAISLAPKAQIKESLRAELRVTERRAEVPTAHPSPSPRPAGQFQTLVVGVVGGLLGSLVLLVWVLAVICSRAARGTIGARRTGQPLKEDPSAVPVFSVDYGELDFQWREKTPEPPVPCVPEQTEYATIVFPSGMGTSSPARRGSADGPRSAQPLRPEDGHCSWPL
Sequence of PD-1 (antigen of the ELISA and of the in vitro affinity measurement) (Q15116 25-167 limits assumed): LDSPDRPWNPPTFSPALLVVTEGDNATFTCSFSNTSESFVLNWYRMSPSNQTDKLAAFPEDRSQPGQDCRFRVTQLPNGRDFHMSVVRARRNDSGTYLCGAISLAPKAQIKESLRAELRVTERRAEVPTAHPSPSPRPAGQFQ

B1: TC3 (Fc fusion)
heavy 1: QVQLVQSGVEVKKPGASVKVSCKASGYTFTNYYMYWVRQAPGQGLEWMGGINPSNGGTNFNEKFKNRVTLTTDSSTTTAYMELKSLQFDDTAVYYCARRDYRFDMGFDYWGQGTTVTVSSASTKGPSVFPLAPSSKSTSGGTAALGCLVKDYFPEPVTVSWNSGALTSGVHTFPAVLQSSGLYSLSSVVTVPSSSLGTQTYICNVNHKPSNTKVDKKVEPKSCDKTHTCPPCPAPELLGGPSVFLFPPKPKDTLMISRTPEVTCVVVDVSHEDPEVKFNWYVDGVEVHNAKTKPREEQYASTYRVVSVLTVLHQDWLNGKEYKCKVSNKALPAPIEKTISKAKGQPREPQVYTLPPCRDELTKNQVSLWCLVKGFYPSDIAVEWESNGQPENNYKTTPPVLDSDGSFFLYSKLTVDKSRWQQGNVFSCSVMHEALHNRFTQKSLSLSPGGGSSPPGGGSSGGGSGPAPTSSSTKKTQLQLEHLLLDLQMILNGINNYKNPKLTAMLTAKFAMPKKATELKHLQCLEEALKPLEEVLNLAQSKNFHLRPRDLISNINVIVLELKGSETTFMCEYADETATIVEFLNRWITFAQSIISTLT
heavy 2: QVQLVQSGVEVKKPGASVKVSCKASGYTFTNYYMYWVRQAPGQGLEWMGGINPSNGGTNFNEKFKNRVTLTTDSSTTTAYMELKSLQFDDTAVYYCARRDYRFDMGFDYWGQGTTVTVSSASTKGPSVFPLAPSSKSTSGGTAALGCLVKDYFPEPVTVSWNSGALTSGVHTFPAVLQSSGLYSLSSVVTVPSSSLGTQTYICNVNHKPSNTKVDKKVEPKSCDKTHTCPPCPAPELLGGPSVFLFPPKPKDTLMISRTPEVTCVVVDVSHEDPEVKFNWYVDGVEVHNAKTKPREEQYASTYRVVSVLTVLHQDWLNGKEYKCKVSNKALPAPIEKTISKAKGQPREPQVCTLPPSRDELTKNQVSLSCAVKGFYPSDIAVEWESNGQPENNYKTTPPVLDSDGSFFLVSKLTVDKSRWQQGNVFSCSVMHEALHNHYTQKSLSLSPGGPPSGSSPMPYDLYHPSGGGAVNGTSQFTCFYNSRANISCVWSQDGALQDTSCQVHAWPDRRRWNQTCELLPVSQASWACNLILGAPDSQKLTTVDIVTLRVLCREGVRWRVMAIQDFKPFENLRLMAPISLQVVHVETHRSNISWEISQASHYFERHLEFEARTLSPGHTWEEAPLLTLKQKQEWISLETLTPDTQYEFQVRVKPLQGEFTTWSPWSQPLAFRTKPAALGKD
light: EIVLTQSPATLSLSPGERATLSCRASKGVSTSGYSYLHWYQQKPGQAPRLLIYLASYLESGVPARFSGSGSGTDFTLTISSLEPEDFAVYYCQHSRDLPLTFGGGTKVEIKRTVAAPSVFIFPPSDEQLKSGTASVVCLLNNFYPREAKVQWKVDNALQSGNSQESVTEQDSKDSTYSLSSTLTLSKADYEKHKVYACEVTHQGLSSPVTKSFNRGEC
notes: Bivalent anti-PD-1 Fab
B1 came in with an EC50 in assay [1] of 0.1 nM. Further, in assay [2], binding was put at a Kd of 7.11 nM, the koff came out at 0.00328 s⁻¹ and the kon turned out to be 461000 M⁻¹ s⁻¹.

B2: TC24 (Fc fusion)
heavy 1: QVQLVQSGVEVKKPGASVKVSCKASGYTFTNYYMYWVRQAPGQGLEWMGGINPSNGGTNFNEKFKNRVTLTTDSSTTTAYMELKSLQFDDTAVYYCARRDYRFDMGFDYWGQGTTVTVSSASTKGPSVFPLAPSSKSTSGGTAALGCLVKDYFPEPVTVSWNSGALTSGVHTFPAVLQSSGLYSLSSVVTVPSSSLGTQTYICNVNHKPSNTKVDKKVEPKSCDKTHTCPPCPAPELLGGPSVFLFPPKPKDTLMISRTPEVTCVVVDVSHEDPEVKFNWYVDGVEVHNAKTKPREEQYASTYRVVSVLTVLHQDWLNGKEYKCKVSNKALPAPIEKTISKAKGQPREPQVYTLPPCRDELTKNQVSLWCLVKGFYPSDIAVEWESNGQPENNYKTTPPVLDSDGSFFLYSKLTVDKSRWQQGNVFSCSVMHEALHNRFTQKSLSLSPGGGSSPPGGGSSGGGSGPAPTSSSTKKTQLQLEHLLLDLQMILNGINNYKNPKLTAMLTAKFAMPKKATELKHLQCLEEALKPLEEVLNLAQSKNFHLRPRDLISNINVIVLELKGSETTFMCEYADETATIVEFLNRWITFAQSIISTLT
heavy 2: QVQLVQSGVEVKKPGASVKVSCKASGYTFTNYYMYWVRQAPGQGLEWMGGINPSNGGTNFNEKFKNRVTLTTDSSTTTAYMELKSLQFDDTAVYYCARRDYRFDMGFDYWGQGTTVTVSSASTKGPSVFPLAPSSKSTSGGTAALGCLVKDYFPEPVTVSWNSGALTSGVHTFPAVLQSSGLYSLSSVVTVPSSSLGTQTYICNVNHKPSNTKVDKKVEPKSCDKTHTCPPCPAPELLGGPSVFLFPPKPKDTLMISRTPEVTCVVVDVSHEDPEVKFNWYVDGVEVHNAKTKPREEQYASTYRVVSVLTVLHQDWLNGKEYKCKVSNKALPAPIEKTISKAKGQPREPQVCTLPPSRDELTKNQVSLSCAVKGFYPSDIAVEWESNGQPENNYKTTPPVLDSDGSFFLVSKLTVDKSRWQQGNVFSCSVMHEALHNHYTQKSLSLSPGGGSSGPVPLSLYSGSGGGAVNGTSQFTCFYNSRANISCVWSQDGALQDTSCQVHAWPDRRRWNQTCELLPVSQASWACNLILGAPDSQKLTTVDIVTLRVLCREGVRWRVMAIQDFKPFENLRLMAPISLQVVHVETHRSNISWEISQASHYFERHLEFEARTLSPGHTWEEAPLLTLKQKQEWISLETLTPDTQYEFQVRVKPLQGEFTTWSPWSQPLAFRTKPAALGKD
light: EIVLTQSPATLSLSPGERATLSCRASKGVSTSGYSYLHWYQQKPGQAPRLLIYLASYLESGVPARFSGSGSGTDFTLTISSLEPEDFAVYYCQHSRDLPLTFGGGTKVEIKRTVAAPSVFIFPPSDEQLKSGTASVVCLLNNFYPREAKVQWKVDNALQSGNSQESVTEQDSKDSTYSLSSTLTLSKADYEKHKVYACEVTHQGLSSPVTKSFNRGEC
notes: Mask CD122 (C122S, C168S)
Consider B2, for which, in assay [1], the concentration giving a half-maximal response (EC50) came to 0.1 nM.

B3: TC47 (Fc fusion)
heavy 1: QVQLVQSGVEVKKPGASVKVSCKASGYTFTNYYMYWVRQAPGQGLEWMGGINPSNGGTNFNEKFKNRVTLTTDSSTTTAYMELKSLQFDDTAVYYCARRDYRFDMGFDYWGQGTTVTVSSASTKGPSVFPLAPSSKSTSGGTAALGCLVKDYFPEPVTVSWNSGALTSGVHTFPAVLQSSGLYSLSSVVTVPSSSLGTQTYICNVNHKPSNTKVDKKVEPKSCDKTHTCPPCPAPELLGGPSVFLFPPKPKDTLMISRTPEVTCVVVDVSHEDPEVKFNWYVDGVEVHNAKTKPREEQYASTYRVVSVLTVLHQDWLNGKEYKCKVSNKALPAPIEKTISKAKGQPREPQVYTLPPCRDELTKNQVSLWCLVKGFYPSDIAVEWESNGQPENNYKTTPPVLDSDGSFFLYSKLTVDKSRWQQGNVFSCSVMHEALHNRFTQKSLSLSPGGGSSPPGGGSSGGGSGPAPTSSSTKKTQLQLEHLLLDLQMILNGINNYKNPKLTAMLTAKFAMPKKATELKHLQCLEEALKPLEEVLNLAQSKNFHLRPRDLISNINVIVLELKGSETTFMCEYADETATIVEFLNRWITFAQSIISTLT
heavy 2: QVQLVQSGVEVKKPGASVKVSCKASGYTFTNYYMYWVRQAPGQGLEWMGGINPSNGGTNFNEKFKNRVTLTTDSSTTTAYMELKSLQFDDTAVYYCARRDYRFDMGFDYWGQGTTVTVSSASTKGPSVFPLAPSSKSTSGGTAALGCLVKDYFPEPVTVSWNSGALTSGVHTFPAVLQSSGLYSLSSVVTVPSSSLGTQTYICNVNHKPSNTKVDKKVEPKSCDKTHTCPPCPAPELLGGPSVFLFPPKPKDTLMISRTPEVTCVVVDVSHEDPEVKFNWYVDGVEVHNAKTKPREEQYASTYRVVSVLTVLHQDWLNGKEYKCKVSNKALPAPIEKTISKAKGQPREPQVCTLPPSRDELTKNQVSLSCAVKGFYPSDIAVEWESNGQPENNYKTTPPVLDSDGSFFLVSKLTVDKSRWQQGNVFSCSVMHEALHNHYTQKSLSLSPGGGSSGPVPLSLYSGSGGGAVNGTSQFTCFYNSRANISCVWSQDGALQDTSCQVHAWPDRRRWNQTCELLPVSQASWACNLILGAPDSQKLTTVDIVTLRVLCREGVRWRVMAIQDFKPFENLRLMAPISLQVVHVETHRACISWEISQASHYFERHLEFEARTLSPGHTWEEAPLLTLKQKQEWICLETLTPDTQYEFQVRVKPLQGEFTTWSPWSQPLAFRTKPAALGKD
light: EIVLTQSPATLSLSPGERATLSCRASKGVSTSGYSYLHWYQQKPGQAPRLLIYLASYLESGVPARFSGSGSGTDFTLTISSLEPEDFAVYYCQHSRDLPLTFGGGTKVEIKRTVAAPSVFIFPPSDEQLKSGTASVVCLLNNFYPREAKVQWKVDNALQSGNSQESVTEQDSKDSTYSLSSTLTLSKADYEKHKVYACEVTHQGLSSPVTKSFNRGEC
notes: Mask CD122 (C122A, N123C)
As for B3, it took 0.1 nM to reach a half-maximal effect in assay [1] (EC50). This lies in the sub-nanomolar range.
